# According to the DeepSol protein solubility set:
# Experiment: soluble on expression in E. coli; label from the status in PepcDB or PDB records
row,Sequence,soluble on expression in E. coli
1,MGSDKIHHHHHHIYCSGKLLQTVMAVQLYPDSKTFVDQPMKENQTGKSIMEHFEKRFPVSIEKITKKDVAEFVDEFFDKEGNELDVCDLPDWRPITEQLANIKDASYQAFAQRLHFIWIQLCRQIKPEVKNDPSRFSLIYVPYQFILPGGRFREFYYWDAYWILKGLIASELYSTARMMILNFAHIIETYGFVPNGGRVYYLRRSQPPFFAPMVYEYYLATQDIQLVADLIPVIEKEYTFWSERRTVNVTYEHPDLNETLHMFQYRTEAETPRPESFREDVLSAEHFTTKDRKKQFFKDLGSAAESGWDFSSRWFKNHKDISTIETTNIVPVDLNAFLCYNMNIMQLFYKLTGNPLKHLEWSSRFTNFREAFTKVFYVPARKGWYDYNLRTLTHNTDFFASNAVPLFSQCYDPLNSQIAVDVYNEMQNSGAFSIPGGIPTSMNEETNQQWDFPNGWSPMNHMIIEGLRKSNNPILQQKAFTLAEKWLETNMQTFNVSDEMWEKYNVKEPLGKLATGGEYEVQAGFGWTNGAALDLIFTYSDRLQYNGPILESLVGSQTTSMKSSPDSSTSLPIDITTTITTSSSSSTFGYSNILTLITVFVLYIL,not soluble
2,MGSDKIHHHHHHKENNDFSSMQMKGVEQVSVKVDLDPAVERLSKAVQFRTISNQDRNDFDEKAFTDYHQFLEKAYPNVHKTLKREVLGSPRPFSLLYTWKGKDPSLPPALFYAHQDVVPVPSESRDQWAVDPFAGAVQDGYIWGRGVLDDKNQIHGILEAAEMKIKEGWQPSRTLYFVFGQDEEVGGPEGAKYIADVLEQRGIKRFAFVIDESAPLTPGIFPGIPDNTALIGIAQKGFVSLELAMNGIGGHSSQPPEESNIGILAKAITKLEAAQFPYRIHEAVRHQYRYMGPELSEDKQPMYAAVAFGKDGEITPLEQKFIDEMASQQVTRAMLHTTIAVTMFNAGIKDNVLPPSATAVVNFRPMPGDTPEVIIAHVKKAIGDDRITVRDISASTPATNVADPSSKSYQQLEKTIRQIYGNDLIVSPFFVIGGSDSKHFQARKFAPDVYTITGLQLESVKEFAGFHGVNERIRVDEYGRTIGFFYKLMDNLEEL,not soluble
3,MGSDKIHHHHHHKGHRVTGSDANVYPPMSTQLEDQGIELIQGFDPSQLGEAGHYPDLVVIGNAMSRGNPCVEAVLNIGIPYTSGPQFLADHILPERWVLAVSGTHGKTSTSSMLAWILDDCGYEPGFLIGGVPQNFGVSARLGKTAFFVVEADEYDSAFFDKRSKFVHYHPRTLVINNLEFDHADIFADLAAIQKQFNHLVRTVPGEGKIVWPADSHAVKQTIDMGCWSEQETYHLAESANGWYGKALSDDCHRFEVFFDGESQGILEWDLIGQHNIENAMMAIAAARHVGVKPSAAIEALAKFMPPKRRLELLGTVNGVSVYDDFAHHPTAIATTLKGMRAKVGQSKITVVLEPRSNTMKSGVHKDTLAFSMMQADEAFLYQADTIDWNMKEAMEAAVIPVTVLHQIDDVVAKVTATAKAGDTIVVMSNGGFGGLHKKLLAALELRSTVELV,not soluble
4,MGSDKIHHHHHHKLRDEGDAALKAKDYATVVTKYGEYLKQNNYQDTARIFNCGYAANQAKNYAEAAKYFDMAVKMNYNVDDSYVGEAMAYRNLNKTEEFLTTVKEGLKVIPDGNKNKTNLEKLLYGYCIKQGQAAQKKGDLAGAEKMYKEVLAVSNKDYQSNAYYSLGAMLYGNGAKILQAATPIATSEPDKYNAEKAKADKDFKQAKEYLTKAVELDPKDENSKKILASINDILK,not soluble
5,MGSDKIHHHHHHKPGEVWPDDKGVHINAHGGGILRVGDTYYWFGEHKTEGSAGNLAQVGVHCYSSKDLYNWKDEGIALSVVPDDTTSHIVKGCVLERPKVIYNKKNDQYVMWFHLEPRGAGYSGALSGVAVSKNVAGPYSFVNAFRPNAGFWPVNVQELHKQPCTFSADLRFSGGELPAHPDSLNLLGRDQISGQMARDMNLFVDDDGIAYHIYSSEENSTLHISQLTDDYTSYSGKYARFFPGRFMEAPALFKQKGKYYLIMSGCTGWAPNAGRSAVASSIWGPWKELENPFRGENSEVSFYSQSTYVLPVPGHADRFIYMGDRWTPENAIDGRYIWLPIRFEGEQPVIEWRSEWSY,not soluble
6,MGSDKIHHHHHHKTSSTQLPTIDAISSVADLTNAVNGVYEQQATEVGSYGAEFTLLADLRSGDFQSISTVNHAGPMYRYQTGKNDEMVYSFYKLFYNSLARLNNVLAAAENLEGADVDILKGELYAMRALYHFDLARVFAKLPSTTDMNDLGIVLSTEVYPTDYIGTRATLQQTYDQILKDIETALPLLSKDKQTGHINYWGALAIRARAYLYLEKNKEALADCKEIIASSPYKLYTRDEYIGAWDKEGTNEAIFEILVTPNYNAQRNSIGYFTHASGYGECAATESFLEELAKHPGDIRTELFAKETDNGYDGTYPQKYKGRDGQIYVNNPKVVRLSEVYLIAAEAALKAGDTSAAAGYMNTLRKNRIENYTDVASITLDDILLERRLELFTEGHTAWDAWRNGKSVNNKFVGEVKPGDYRTIMAIPIGEITVSRGQLIQNPGY,not soluble
7,MGSDKIHHHHHHLIPVLDTDAWVEKLLSTRRSAEGKILAFYEHRMEAICRDPRLLLMPADDHLAHRGDGVFESMKFEGRRLYQLDAHLERMERSARGIYLTPPCTQSVLRDIVLQVARAADTPDGCIRILLGRGPGGFGIDPAECPVPSLYVVAYSLTPKPEEWYEKGVTAFRTSIPAKQGYLATIKNANYIPNVLMKLEARSRGCDIPVSFDENDFIAEGPTENLCLVDADGTLVVPEFTNALSGTTIMRVIDLVRDEMNVAFRKVREDELYRAAEVMVLGTTTECVSVVSFEGQPVGGGRPGPVARRFRELLRRDLAENGISF,not soluble
8,MGSDKIHHHHHHLKICLSCSARFTDSGWRCPVCFSTPEQVDGFLSFAPAQAKSDEGFQPHHFNELAQAEAEHFWFRSRNRLIIWALHRFFPDARKFLEIGCGTGFVLSGIAQDNPRLEISGSEIHSAGLSHAADRARNATLFQMDARDIPFDSEFDVIGAFDVLEHIEEDSQVLLQMFRAISPGGGMIVTVPQHRFLWSQQDEHACHVRRYEAQELQDKVEKAGFRVEKATSFVSLLLPLMFISRLSKRKPVENYDPTQEFRIKKWVNTILEGILDLERLMIRGRVSFPMGGSRLLIARKPAGA,not soluble
9,MGSDKIHHHHHHLPSARLSPRLSSPAGCRQTEWSQMPEAFIELRAITKRFSGVCALDALSLTINKGEIHCLAGENGSGKSTVIKVMAGVYQPDGGEILINGAPVRALTPIEAVRRNIQVIYQDFSLFGNLTVAENLALCGELQQKRKLADWKRIRAIGRQALDRLGVDIDLEVDVERLPTSSRQIVAIARALMSDAKLLIMDEPTTALTGREVDALFRIVKDIQAQGIAVLFVSHKMREMLEISERLTVIRNGRTVIDGPTSAFDESAVTRHMTGLDILSEGYAWAGSPEAVPRLEVRGLSLPGAFEDLSLAIRPGEIVGLSGLLGSGRTEFALSLFGMMPPAAGQVLVDGAQIAPRSVQDAIAEGITYVPEDRLTEGLFLTQSIDRNILATSYERLAPRGVIDRAKAAMQSAGMIKAMQIATPTGEKPVGQLSGGNAQRVVLARWLLTDAKVLILNGPTVGVDVGSKAEIHRKIRELASAHGLAVLMISDDVLELVQNTNRIVLMHRGRFVDDLPTATVSEQSINDLLKSFT,not soluble
10,MGSDKIHHHHHHLSISIGSIKRAEAGKNILYRTLVQLSEFFHISIEDLIGDIPVSLWDYVRERPTQLIPCIGRDWELSLLQKLQLSSKTGLKTACVYGMQGLGKTSLVRHFLSRLDQTNWRALYLCSLDQGTFLRRFICTLLDISEIFDDEQLRFRIKMISTSPLVYFYLLRLSGLVLHKSELQAINNLSENRLHEVEVLSVMGLIQNFKQRKVSVLAIDSLHILNEGQLRVIKIFTQNMITQPILIIFSLTDVHRLLYLPDWLQSSNQIQLKPLQAIAMNALVNNEVEMNPCQPMKLAAYKKIVVQRARGNPLILKALIKSKRPDQDFPEEMVNSVQGMLTQLTGIECRLLQFLAACGPCVSIDTLELFNSQLSEPCICLLHRLVRIGFLYPRSECYIFRHILIWEIVKAQMNDSDTASVYSEQHNRLNA,not soluble
11,MGSDKIHHHHHHLTNQMVYVYKDGKQVVSSQCVTGCIAKGHGTPTGVYSIFSMDKDRYLRGDGYKSWVNFFVPFNGGIGFHDASWRSTFGGNIYLYSGSHGCINMPYSEVKKLFANVSMGETVIVYGGATSVDGKEQSFTGQDAYSVTEGDASFNLGVTAQDNAKLTYVSDNEWVAKVDESGNVTPVGVGTATITVKSEATAGYRAGTKTITVTVNAKAQPQVQPQKPAQQQPQKPAQQQQPQKPAAKKDASVNVSESDVSLEINGTKKINISVSSDTGATVEVESGDASVATLDSNGNIVAKNEGQVTYKVYTKATGSYNASNVSYVTIKVSKPAEPDDSGADADRE,not soluble
12,MGSDKIHHHHHHLVSDNMVLQQATKVRLWGNATPNSSLKVRSSWDNTEYTAQVNDQGRWEIWVQTPSASFEKQQLTLKNGQDKIVLHDLLIGEVWFGSGQSNMEMPLRGFWHCPIEGGNHAIATSGKYKNSIRYATIQRVGALEPKDYPVGGEWKVCDPRNAPEFGATAYFFATLLTEVLNVPVGIINCSWGGSTVEGWLPKDILRNYSDIDLSLAGNDEKIHPMLQPMIMYNGMLKPASKYTVRGFLWYQGESNVGHPDYAKRLATMVEHWRGLWGQEELPFYLVEIAPYEYGEGDQAAYLREEQYKATRLIPNSGIVSTNDLVQDYEKRQIHPKEKQKIGERLCYMALNKTYGYTTIACEGPQYDHMEVDKDKIILFFKNAEDGFNRDNGIIGFEIAGKDMRFHKANATIDANKKTVIISAPDVKAPIAVRYGFRNFQIGNLQNVQGLPVLPFRTDK,not soluble
13,MGSDKIHHHHHHMAAKIITVFNQKGGCGKTTVSMHLAGTLGLRGARSMLVDMDEQGTATRWAAQASDERPFPASVIGLAPSGGAMHREVRKFVQDYDYIVVDCPPAVHSAAPSSALLISDLAIIPVVPSPPDLWAAVAAKTLAQHAQVQNETLLIRVMANMVQRRVSIARQAIEILGDDGEVPLLNSMIGSRSAFRECQAIGCTVHGVAGAREAVQEVDMMVDEVLSLIEH,not soluble
14,MGSDKIHHHHHHMAATFKMVGVIRFSLLTPTFNADRYPDLEAAAAAIFAPDRMALRLHLFETLCLPSLVRQSDAAFHLVVATSDRLPAVILQHLQALLAPHDHMQLIQFAPENHYQILKEAYRAVPQQGESHRILFRLDDDDALDRHYVARCKRLAAGLVPLQTEAVSPIALAFNRGYYLIREEGQPPVVMDSCERAPLSAGTALVQPIAARGNPYRYNHRKFAQHYTLYSDISVPSFVRTVHGDNHSTPAMMGLTARQSDAEMDADLQRHFDLSLSDLKAI,not soluble
15,MGSDKIHHHHHHMAATPRKLSSKEVAALVGNLMEASESTSLENGLEVRPYAFGENELNQLGDYHALRIINERFCRTARDVFLPMLRLQPRISSFPPEVRSFDDYRSSQDNFVSITASRIEELRGNQMIVIPPPFISLLTDSYYGGQIRHVPTTRTEFTATEERVIELVTDRLNVALQVAWRDLMALTFTVVSREESMQFASFVDGEDMVVNCSFMVQLPNTEPASFDILYPLQTLKPISSQLRSRMQSDFVDDDRSWREKLERAILSIPLTLSARLCEPEVPLRQLMQMQPGDVLPVHLTEAVSLLVEGQPIFEAAPGERGGQAALNLTRRHVRS,not soluble
16,MGSDKIHHHHHHMADNLALRMRPRNINEVIGQQHLVGNGKIIDRMVAANMLSSMILYGPPGIGKTSIASAIAGTTKYAFRTFNATVDSKKRLQEIAEEAKFSGGLVLLLDEIHRLDKTKQDFLLPLLENGNIIMIGATTENPFFSVTPAIRSRVQIFELEPLSNEDIKKAIQLAISDKERGFPFLVTIDDEALDFIVTATNGDLRSAYNSLDLAVMSTSPNEDGSRHISLETMENSLQCSYITMDKNGDGHYDILSALQKSIRGSDVNASLHYAARLVEAGDLPSLARRLTIIAYEDIGLANPEAQIHTVTALEAAQRIGFPEARILIANIVVDLALSPKSNSAYLAMDAALADLRRSGNLPIPRHLRDGHYSGSKTLGNARDYKYPHAYPEKWVKQQYLPDKLVGHNYFEANETGKYERALGSNKERIDKLSD,not soluble
